Laboratory results as given in publication doi:10.1101/2024.09.13.612941.

Legend:
[1] = target: T1, SMARCAD1 (human, UniProt Q9H4L7-2 1-1028, V974A); experiment: fluorescence polarization
T1 sequence: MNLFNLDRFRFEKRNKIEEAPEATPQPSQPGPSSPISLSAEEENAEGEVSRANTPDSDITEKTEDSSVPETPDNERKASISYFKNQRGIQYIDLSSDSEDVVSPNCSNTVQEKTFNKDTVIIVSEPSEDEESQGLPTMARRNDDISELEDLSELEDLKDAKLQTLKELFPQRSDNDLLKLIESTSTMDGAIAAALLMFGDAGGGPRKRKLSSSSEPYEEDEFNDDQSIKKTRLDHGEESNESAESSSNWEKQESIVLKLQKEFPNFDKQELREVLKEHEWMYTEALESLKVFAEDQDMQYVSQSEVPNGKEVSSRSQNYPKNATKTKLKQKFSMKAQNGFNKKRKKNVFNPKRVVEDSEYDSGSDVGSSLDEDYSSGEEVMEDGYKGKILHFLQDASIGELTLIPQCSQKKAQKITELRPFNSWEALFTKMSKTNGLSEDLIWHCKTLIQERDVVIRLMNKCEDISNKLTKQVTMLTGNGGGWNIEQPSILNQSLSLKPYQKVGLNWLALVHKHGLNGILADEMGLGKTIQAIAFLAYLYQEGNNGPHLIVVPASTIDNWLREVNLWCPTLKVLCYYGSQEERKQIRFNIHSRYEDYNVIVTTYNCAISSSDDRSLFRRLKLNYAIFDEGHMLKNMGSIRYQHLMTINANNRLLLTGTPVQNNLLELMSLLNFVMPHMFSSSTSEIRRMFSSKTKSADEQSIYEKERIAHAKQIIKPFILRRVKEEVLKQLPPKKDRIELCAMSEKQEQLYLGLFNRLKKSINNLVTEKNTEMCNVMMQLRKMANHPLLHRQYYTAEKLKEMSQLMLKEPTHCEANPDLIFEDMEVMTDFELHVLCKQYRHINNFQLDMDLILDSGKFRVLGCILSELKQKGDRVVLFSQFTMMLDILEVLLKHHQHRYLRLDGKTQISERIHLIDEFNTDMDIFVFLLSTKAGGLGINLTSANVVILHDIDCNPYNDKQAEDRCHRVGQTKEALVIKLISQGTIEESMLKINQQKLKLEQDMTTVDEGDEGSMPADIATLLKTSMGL

[2] = target: T1, SMARCAD1; experiment: fluorescence polarization; remark: listed apart in the source

B1: DNA-RNA hybrid (DNA:RNA)
RNA: GCAGCUGGCACGACAGGUAUGAAUC
DNA: GATTCATACCTGTCGTGCCAGCTGC
binding result [1]: binds

B2: R-loopshort (mixed)
DNA 1: GCCAGGGACGAGGTGAACCTGCAGGTGGGCGGCTACTACTTAGATGTCATCCGAGGCTTATTGGTAGAATTCGGCAGCGTCATGCGACGGC
DNA 2: GCCGTCGCATGACGCTGCCGAATTCTACCACGCGATTCATACCTGTCGTGCCAGCTGCTTTGCCCACCTGCAGGTTCACCTCGTCCCTGGC
RNA: GCAGCUGGCACGACAGGUAUGAAUC
apparent K (half saturation) [2]: 26.1 ± 1.4 nM

B3: dsDNAshort (dsDNA)
DNA 1: GCAGCTGGCACGACAGGTATGAATC
DNA 2: GATTCATACCTGTCGTGCCAGCTGC
apparent K (half saturation) [2]: 39.5 ± 2 nM
